Source: patent publication US20070298494A1 (KANSAS STATE UNIVERSITY RESEARCH FOUNDATION, published 2007)

B1: C-K4-M2GlyR (peptide)
peptide: PARVGLGITTVLTMTTQSSGSRAKKKK
notes: Synthetic peptide; tested for association with itself in solution by BS3 cross-linking and SDS-PAGE; also called CK4ALB
B2: NK4A'Wa' (peptide)
peptide: KKKKAARVGLGITTVWVTTIGLGVRAA
notes: Synthetic peptide; tested for association with itself in solution by BS3 cross-linking and SDS-PAGE
B3: N-K4-M2GlyR (peptide)
peptide: KKKKPARVGLGITTVLTMTTQSSGSRA
notes: Synthetic peptide; tested for association with itself in solution by BS3 cross-linking and SDS-PAGE; also called NK4ALB

Biological target: the molecule itself
Assay: BS3 chemical cross-linking in solution, SDS-PAGE, silver stain; association of the peptide with itself
Experimental: In order to visualize the oligomeric state of the peptide in solution a chemical cross-linking protocol was developed. Calculated amounts of each peptide were weighted out and dissolved in 1 mL of distilled water to make 1 mM stock solutions. A 100 mM stock solution of the chemical crosslinking reagent Bis[Sulfosuccinimidyl]suberate, BS³, (Pierce Chemical Co., Rockford, Ill.) was prepared in dimethyl sulfoxide (DMSO). In typical reactions, 5-30 μL of 1.0 mM stock solution of peptide are added to 64-94 μL of 10 mM HEPES buffer, pH 8.1 to give a range of concentrations starting at 50 μM rising up to 300 μM. Sample were allowed to sit at room temperature for 15 minutes. 1-6 μL of 100 mM BS³ was then added to the previously prepared peptide such that the crosslinking reagent was present in 20-fold excess. The final volume for each reaction was 100 μL. After reacting for 30 minutes, the reaction was stopped with the addition of 10 μL 1.0 N HCl. Each sample was then vacuum dried. Later dry samples were re-dissolved in 60 μL of distilled water along with 60 μL of a 2×-tricine SDS sample buffer (Novex, San Diego). All samples were then boiled at 100° C. for 5 minutes. 5 μL aliquots of each SDS boiled sample was then loaded into separate lanes of pre-cast, 1.0 mm, 10 well, 10-20% tricine gels (Novex, San Diego). Pre-made Novex tricine-SDS buffer was used in the electrophoresis. The reference well contained 1 μL of MultiMark® multi-colored molecular weight standard (Novex, San Diego). The electrophoresis was carried out at a constant 110 Volts for 90 minutes. The gel was then fixed in 40% methanol in water and the cross-linked peptides visualized using silver staining (SilverXpress® silver staining kit, Invitrogen, Carlsbad, Calif.).

Row | Protein | binding result
1 | B1 | binds
2 | B2 | no binding
3 | B3 | binds
